According to PMC10397247:

What was measured:
4H1985-bH = target: T1, 4H1985-bH; experiment: two-hybrid library CCNG1;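 note: natural log of median RNA to DNA barcode read ratio; higher means stronger binding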
T1 chain: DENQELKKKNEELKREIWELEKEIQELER

4H1899-bH = target: T2, 4H1899-bH; experiment: two-hybrid library CCNG1;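 note: natural log of median RNA to DNA barcode read ratio; higher means stronger binding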
T2 chain: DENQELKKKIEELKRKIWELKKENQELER

4H3926-bH = target: T3, 4H3926-bH; experiment: two-hybrid library CCNG1;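 note: natural log of median RNA to DNA barcode read ratio; higher means stronger binding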
T3 chain: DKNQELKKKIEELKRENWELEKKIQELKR

4H1710-bH = target: T4, 4H1710-bH; experiment: two-hybrid library CCNG1;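 note: natural log of median RNA to DNA barcode read ratio; higher means stronger binding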
T4 chain: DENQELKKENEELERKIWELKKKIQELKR

4H3628-bH = target: T5, 4H3628-bH; experiment: two-hybrid library CCNG1;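 note: natural log of median RNA to DNA barcode read ratio; higher means stronger binding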
T5 chain: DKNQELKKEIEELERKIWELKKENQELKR

4H3974-bH = target: T6, 4H3974-bH; experiment: two-hybrid library CCNG1;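 note: natural log of median RNA to DNA barcode read ratio; higher means stronger binding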
T6 chain: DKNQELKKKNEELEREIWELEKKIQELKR

4H591-bH = target: T7, 4H591-bH; experiment: two-hybrid library CCNG1
T7 chain: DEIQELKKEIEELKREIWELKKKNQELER

4H3162-bH = target: T8, 4H3162-bH; experiment: two-hybrid library CCNG1
T8 chain: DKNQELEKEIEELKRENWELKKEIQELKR

4H3277-bH = target: T9, 4H3277-bH; experiment: two-hybrid library CCNG1
T9 chain: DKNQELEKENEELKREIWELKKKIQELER

4H1544-bH = target: T10, 4H1544-bH; experiment: two-hybrid library CCNG1
T10 chain: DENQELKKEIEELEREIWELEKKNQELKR

4H850-bH = target: T11, 4H850-bH; experiment: two-hybrid library CCNG1
T11 chain: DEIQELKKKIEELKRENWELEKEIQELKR

4H3613-bH = target: T12, 4H3613-bH; experiment: two-hybrid library CCNG1
T12 chain: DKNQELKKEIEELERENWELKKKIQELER

4H1373-bH = target: T13, 4H1373-bH; experiment: two-hybrid library CCNG1
T13 chain: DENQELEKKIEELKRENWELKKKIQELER

4H570-bH = target: T14, 4H570-bH; experiment: two-hybrid library CCNG1
T14 chain: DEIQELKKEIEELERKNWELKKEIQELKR

4H3175-bH = target: T15, 4H3175-bH; experiment: two-hybrid library CCNG1
T15 chain: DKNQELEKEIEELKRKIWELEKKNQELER

4H3497-bH = target: T16, 4H3497-bH; experiment: two-hybrid library CCNG1
T16 chain: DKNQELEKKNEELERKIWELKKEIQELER

4H3185-bN = target: T17, 4H3185-bN; experiment: two-hybrid library CCNG1
T17 chain: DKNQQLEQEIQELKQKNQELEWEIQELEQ

4H906-bH = target: T18, 4H906-bH; experiment: two-hybrid library CCNG1
T18 chain: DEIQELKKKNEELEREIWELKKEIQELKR

4H1449-bH = target: T19, 4H1449-bH; experiment: two-hybrid library CCNG1
T19 chain: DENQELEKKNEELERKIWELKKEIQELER

4H626-bH = target: T20, 4H626-bH; experiment: two-hybrid library CCNG1
T20 chain: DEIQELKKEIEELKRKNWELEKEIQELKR

4H3817-bH = target: T21, 4H3817-bH; experiment: two-hybrid library CCNG1
T21 chain: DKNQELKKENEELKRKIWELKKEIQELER

4H3298-bH = target: T22, 4H3298-bH; experiment: two-hybrid library CCNG1
T22 chain: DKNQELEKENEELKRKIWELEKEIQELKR

4H3858-bH = target: T23, 4H3858-bH; experiment: two-hybrid library CCNG1
T23 chain: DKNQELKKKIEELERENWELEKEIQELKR

4H1348-bH = target: T24, 4H1348-bH; experiment: two-hybrid library CCNG1
T24 chain: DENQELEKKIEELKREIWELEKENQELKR

4H3462-bH = target: T25, 4H3462-bH; experiment: two-hybrid library CCNG1
T25 chain: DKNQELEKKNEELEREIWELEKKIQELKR

4H2750-AA = target: T26, 4H2750-AA; experiment: two-hybrid library CCmax; conditions: mean of both orientations
T26 chain: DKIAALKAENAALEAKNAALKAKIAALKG

4H1802-AA = target: T27, 4H1802-AA; experiment: two-hybrid library CCmax; conditions: mean of both orientations
T27 chain: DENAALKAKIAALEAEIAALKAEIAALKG

4H3020-AA = target: T28, 4H3020-AA; experiment: two-hybrid library CCmax; conditions: mean of both orientations
T28 chain: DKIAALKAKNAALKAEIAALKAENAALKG

4H486-AA = target: T29, 4H486-AA; experiment: two-hybrid library CCmax; conditions: mean of both orientations
T29 chain: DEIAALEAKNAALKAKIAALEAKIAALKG

GCN2_T = experiment: two-hybrid library CCmax; conditions: mean of both orientations
4H2600-AA = target: T30, 4H2600-AA; experiment: two-hybrid library CCmax; conditions: mean of both orientations
T30 chain: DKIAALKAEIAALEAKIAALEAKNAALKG

4H3705-AA = target: T31, 4H3705-AA; experiment: two-hybrid library CCmax; conditions: mean of both orientations
T31 chain: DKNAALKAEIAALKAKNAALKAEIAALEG

4H3365-AA = target: T32, 4H3365-AA; experiment: two-hybrid library CCmax; conditions: mean of both orientations
T32 chain: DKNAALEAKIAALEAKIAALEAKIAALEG

4H895-AA = target: T33, 4H895-AA; experiment: two-hybrid library CCmax; conditions: mean of both orientations
T33 chain: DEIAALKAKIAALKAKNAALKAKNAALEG

4H2721-AA = target: T34, 4H2721-AA; experiment: two-hybrid library CCmax; conditions: mean of both orientations
T34 chain: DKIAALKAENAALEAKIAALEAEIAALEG

4H3651-AA = target: T35, 4H3651-AA; experiment: two-hybrid library CCmax; conditions: mean of both orientations
T35 chain: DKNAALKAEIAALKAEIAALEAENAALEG

4H3782-AA = target: T36, 4H3782-AA; experiment: two-hybrid library CCmax; conditions: mean of both orientations
T36 chain: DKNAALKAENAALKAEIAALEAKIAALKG

4H2898-AA = target: T37, 4H2898-AA; experiment: two-hybrid library CCmax; conditions: mean of both orientations
T37 chain: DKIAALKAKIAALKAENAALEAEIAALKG

4H_APH = target: T38, 4H_APH; experiment: two-hybrid library CCmax; conditions: mean of both orientations
T38 chain: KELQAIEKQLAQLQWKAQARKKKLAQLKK

4H_BCR = target: T39, 4H_BCR; experiment: two-hybrid library CCmax; conditions: mean of both orientations
T39 chain: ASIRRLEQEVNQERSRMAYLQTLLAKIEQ

4H355-AA = target: T40, 4H355-AA; experiment: two-hybrid library CCmax; conditions: mean of both orientations
T40 chain: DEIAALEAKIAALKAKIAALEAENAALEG

4H140-AA = target: T41, 4H140-AA; experiment: two-hybrid library CCmax
T41 chain: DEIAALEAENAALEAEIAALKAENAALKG

4H465-AA = target: T42, 4H465-AA; experiment: two-hybrid library CCmax; conditions: mean of both orientations
T42 chain: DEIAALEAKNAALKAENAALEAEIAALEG

4H58-AA = target: T43, 4H58-AA; experiment: two-hybrid library CCmax; conditions: mean of both orientations
T43 chain: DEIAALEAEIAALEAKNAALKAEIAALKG

4H_GCN4 = experiment: two-hybrid library CCmax
4H535-AA = target: T44, 4H535-AA; experiment: two-hybrid library CCmax; conditions: mean of both orientations
T44 chain: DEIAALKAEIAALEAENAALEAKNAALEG

4H_GCN4, sequence (chain, as listed by the source): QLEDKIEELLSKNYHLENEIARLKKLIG

B1: 4H1348-bH (peptide)
chain: DENQELEKKIEELKREIWELEKENQELKR
Question: With B1 as the binder, how does the interaction score (4H1985-bH) read?
Answer: 0.722

Question: And the interaction score (4H1899-bH)?
Answer: 0.883

Question: What about the interaction score (4H3926-bH) of the same binder?
Answer: 0.857

Question: What about the interaction score (4H1710-bH) of the same binder?
Answer: -0.0273

Question: And the interaction score (4H3628-bH)?
Answer: 1.42

Question: What about the interaction score (4H3974-bH) of the same binder?
Answer: 1.36

Question: What about the interaction score (4H591-bH) of the same binder?
Answer: -1.39

Question: What about the interaction score (4H3162-bH) of the same binder?
Answer: 0.415

Question: What about the interaction score (4H3277-bH) of the same binder?
Answer: -0.13

Question: And the interaction score (4H1544-bH)?
Answer: 1.3

Question: What about the interaction score (4H850-bH) of the same binder?
Answer: 0.659

Question: And the interaction score (4H3613-bH)?
Answer: -1.69

Question: And the interaction score (4H1373-bH)?
Answer: 0.103

Question: What about the interaction score (4H570-bH) of the same binder?
Answer: -0.807

Question: And the interaction score (4H3175-bH)?
Answer: 0.435

Question: And the interaction score (4H3497-bH)?
Answer: 0.0523

Question: And the interaction score (4H3185-bN)?
Answer: -1.2

Question: And the interaction score (4H906-bH)?
Answer: -0.14

Question: And the interaction score (4H1449-bH)?
Answer: 1.19

Question: What about the interaction score (4H626-bH) of the same binder?
Answer: -1.01

Question: What about the interaction score (4H3817-bH) of the same binder?
Answer: 0.205

Question: What about the interaction score (4H3298-bH) of the same binder?
Answer: 0.0904

Question: And the interaction score (4H3858-bH)?
Answer: 0.0862

Question: What about the interaction score (4H1348-bH) of the same binder?
Answer: 0.814

Question: What about the interaction score (4H3462-bH) of the same binder?
Answer: 0.558

B2: 4H140-AA (peptide)
chain: DEIAALEAENAALEAEIAALKAENAALKG
Question: With B2 as the binder, how does the interaction score (4H2750-AA) read?
Answer: -0.883

Question: What about the interaction score (4H1802-AA) of the same binder?
Answer: -1.67

Question: And the interaction score (4H3020-AA)?
Answer: 2.23

Question: What about the interaction score (4H486-AA) of the same binder?
Answer: -0.379

Question: And the interaction score (GCN2_T)?
Answer: -1.08

Question: And the interaction score (4H2600-AA)?
Answer: -1.83

Question: What about the interaction score (4H3705-AA) of the same binder?
Answer: 1.36

Question: What about the interaction score (4H3365-AA) of the same binder?
Answer: -1.08

Question: What about the interaction score (4H895-AA) of the same binder?
Answer: -1.44

Question: And the interaction score (4H2721-AA)?
Answer: -1.25

Question: And the interaction score (4H3651-AA)?
Answer: -1.02

Question: What about the interaction score (4H3782-AA) of the same binder?
Answer: -0.5

Question: And the interaction score (4H2898-AA)?
Answer: -0.325

Question: And the interaction score (4H_APH)?
Answer: -2.79

Question: What about the interaction score (4H_BCR) of the same binder?
Answer: -1.18

Question: What about the interaction score (4H355-AA) of the same binder?
Answer: -1.06

Question: And the interaction score (4H140-AA)?
Answer: 1.28

Question: And the interaction score (4H465-AA)?
Answer: -1.51

Question: What about the interaction score (4H58-AA) of the same binder?
Answer: 1.01

Question: What about the interaction score (4H_GCN4) of the same binder?
Answer: -0.95

Question: And the interaction score (4H535-AA)?
Answer: -1.56
